The DeepSol protein solubility set

Assay: soluble on expression in E. coli; label from the status in PepcDB or PDB records

Sequence | soluble on expression in E. coli
QEGYPFPSFHLRGTHPYRSILVSANTEALSPLLASAMDLARIFGSEVYVLFVSRVEAFMPPEEKELLENLKVLVERARKTSGLEVHLIRKEGNPVRETLRLLKGKFNLLALGYTPGRRTAFFRPYVPQLLAQASPVSTLLVPEVNLER | not soluble
QFLQKQHFLILGLAKSGYAAASILHEKGIYVAVNDQKPFEENEPAQKLSEKGIEVVCGEHPVSLFDQHQITILIKNPGIPYENIMVQEAEKRGIPVW | not soluble
QGQPLANFEGGQPMEALQQWTAAVVKAVEGKLPGITGDDAEAEPAEDPRFEPATEALNAGDFDAAIAVYEEILRHEPKNQMALQARDNARLLSRLKDADRSVDPIAVADADLQDVDKAFAAADAEITTGKVEEAFDRLIELLPNEKVRTRLLELYSVFEPSDSRVQAARSKMASKLF | not soluble
QHLNALMNKEILGKKPGKKKKDKTKRPVLYVIDFSGDIKATQVEQLRDEVTSVLSIAKPEDEVLVRLESPGGAVNGYGLAASQLQRIRDKKIPLTVSIDKMAASGGYLMACVANKIIAAPFAIIGSIGVVAQIPNFHRWLKKNNIDVELLTAGEYKRTLTLFAENTEKGRKKFQEDLEKIHTAFREYVLKNRSQLDIDKVATGEHWIAKDAFDLRLVDKLATSDE | not soluble
QIVDATEALMHDQNSQRITLNMVNSLALHWWIPRMPRLQTYAPQLDVRLSNLSGRFNLEQEGVDAALVHGNPEEWQDYYCEKLSEDELVLVCSPDLIDHSNPVNLSDILKTYPLIEVTNERRKHDWQVWSDATGVARPKNKKPITFNMSIQAVQATTRRLGVLVTHRLFVKDDIKYGQLIELGEPVINPNQQLYFVCPPHKLKQESFHLLRSWLKQEFA | soluble
QLGKDHAIVERNEKIDDAFKSDPASYQSVYDAQGRIKDGQEWMRVSLKGRFDANNEVLLRMRPVEGTPAYQSLVPFTLESGESLLINRGFVPGDAANVPELAAVPTETVTIVAHARANEGMPASAPMSAHGYQQVYGINTTQISEITHTTLGTDFAQLSQDQPGVLNAMPIPQLDRGNHLSYGLQ | not soluble
QLLEPIRDFEARKCPVHGKTMELFCQTDQTCICYLCMFQEHKNHSTVTVEEAKAEKETE | soluble
QLSAGCGELSPQIGGGWLWSSMHRSGRYGTQQQRAGSKTAGPPCQWSRMASEGTNIPSPVVRQIDKQFLICSICLERYKNPKVLPCLHTFCERCLQNYIPAHSLTLSCPVCRQTSILPEKGVAALQNNFFITNLMDVLQRTPGSNAEESSILETVTAVAAGKPLSCPNHDGNVMEFYCQSCETAMCRECTEGEHAEHPTVPLKDVVEQHKASLQVQLDAVNKRLPEIDSALQFISEIIHQLTNQKASIVDDIHSTFDELQKTLNVRKSVLLMELEVNYGLKHKVLQSQLDTLLQGQESIKSCSNFTAQALNHGTETEVLLVKKQMSEKLNELADQDFPLHPRENDQLDFIVETEGLKKSIHNLGTILTTNAVASETVATGEGLRQTIIGQPMSVTITTKDKDGELCKTGNAYLTAELSTPDGSVADGEILDNKNGTYEFLYTVQKEGDFTLSLRLYDQHIRGSPFKLKVIRSADVSPTTEGVKRRVKSPGSGHVKQKAVKRPASMYSTGKRKENPIEDDLIFRVGTKGRNKGEFTNLQGVAASTNGKILIADSNNQCVQIFSNDGQFKSRFGIRGRSPGQLQRPTGVAVHPSGDIIIADYDNKWVSIFSSDGKFKTKIGSGKLMGPKGVSVDRNGHIIVVDNKACCVFIFQPNGKIVTRFGSRGNGDRQFAGPHFAAVNSNNEIIITDFHNHSVKVFNQEGEFMLKFGSNGEGNGQFNAPTGVAVDSNGNIIVADWGNSRIQVFDGSGSFLSYINTSADPLYGPQGLALTSDGHVVVADSGNHCFKVYRYLQ | soluble
QMEEGFVCFKLLYDVKKNRISIDDAVAENGVLPLMKHISWQFDKLPHMLIAGGTGGGKTYFMLTIIKACVGLGADVRILDPKNADLADLEEVLPKKVYSQKNGILMCLRKSVDGMMERMDEMKQMSNYKTGENYAYLGLKPVFIFFDEYVAFMDLLDMKERNEALSYMKQLVMLGRQAGYFLVLGAQRPDA | not soluble
QMQMGLSSFDRVMDVVDMTAEHPDPEHPLDLPAGPLSLELENVHFDGILNGTTLTVPAGDTVAIVGPPGSGKTMAVQLLCGFYRPESGQIRLGGVDTTQLRRHDLRNAVSCVFDDPFLYSASIRDNIAMGRNVTDVEIERAARIAQAHDFITALPHGYDEIVGERGLTLSGGQRQRIAIARAVLERPRVLILDDATSAIDVTTEHAIYEQLSTELSDVTILAVAHRNSTLSLADSVALIDNGRIVDHGSLSYMRANPQFVYLMDVQEHLRKRNSHEPFVPFDDGTEPEWTQLWPEIASSQHDSRLTINSSAMKAAASVAGANPAAGGRGRGRGGMAASIPATPELLARVDALPPTRDTPGPRPLLDHDHGKVTAHQLFASVR | not soluble
QMTARDVYLPVAAQPSVDTLVGMSQQAEDRGYDRVWLPETWGRDAVTTLTSIAEHTSTVGLGSSILNVYSRSPALLGQTAATLQEVSDGRFRAGVGPSGPIVIEGWHGREFESPLKYTRETVDIMKQVLSGETVDYDGDIFSLSGFRLRCEPPEPAPPVDAGGLGPKSVELAGRFADGWHALMLTADGLRDRLEDFEHGADLGDRDRADQRVTLSLTCCAMDDREQARELARQHVAFYIGGMGTFYRDALARQGYEDTAYEIAEQWGSGNKGAAVDAISDELLDSIAVAGTPEDCRDRIAQFEDIDGVDAINISFPRAAERDTIDTTIDVL | not soluble
QMTLTELRAFLDQMNNLPCAMHQIGDVKGVLEQVEAYQAEAREALASLPSSPGLLQSLLERGRQLGVEVPEAQQLQRQVEQARWLDEVKRTLAPSARRGTLAVMRGLLVAGASVAPSPAVDKAQAELQELLTIAERWEEKAHLCLEARQKHPPATLEAIIREAENIPVHLPNIQALKEALAKARAWIADVDEIQNGDHYPCLDDLEGLVAVGRDLPVGLEELRQLELQVLTAHSWREKASKTFLKKNS | not soluble
QSDEWRRTTRLLGEILEDTTRPPLERLRRLVLAFVRSECEEAAIRVALSDAAPLYRDADEAREVKAEGARVFQAFLREALPEVAEAERSLAGDLLTTTLGAVGKQFSEQPRSEAEIERYAEALADMLCAYLAALGER | not soluble
QVQLQQPGAELVKPGASVKLSCKASGYTFTSDWIHWVKQRPGHGLEWIGEIIPSYGRANYNEKIQKKATLTADKSSSTAFMQLSSLTSEDSAVYYCARERGDGYFAVWGAGTTVTVSSAKTTPPSVYPLAPGSAAQTNSMVTLGCLVKGYFPEPVTVTWNSGSLSSGVHTFPAVLQSDLYTLSSSVTVPSSSWPSETVTCNVAHPASSTKVDKKIVPRD | soluble
QVTVQSSPNFTQHVREQSLVTDQLSRRLIRTYQLYSRTSGKHVQVLANKRINAMAEDGDPFAKLIVETDTFGSRVRVRGAETGLYICMNKKGKLIAKSNGKGKDCVFTEIVLENNYTALQNAKYEGWYMAFTRKGRPRKGSKTRQHQREVHFMKRLPRGHHTTE | soluble
RADTLIYMTVNPKTNTTDMVSIPRDTYTKIIGKGTMDKINHSYAFGGTQMTVDTVENFLDVPVDYFVKVNMESFRDVVDTLGGITVNSTFAFSYDGYSFGKGEITLNGKEALAYTRMRKEDPRGDFGRQDRQRQVIQGIINKGAN | not soluble
RAIFKISVAKEKEKMDSLEHNDDNQAIALSLVVKNPAVFSKTLAEVRQLLKGHDYVISRTMDSRTNSISLAHSDTVLNENDRVFVITNPQNTAVISSFIGTEVQMDRKQWIPTESHLVSRRFIVTKSELNGKTLGSLQLRKMHGMNVTRVNRAGVEMVALASLPLQVGDRLTVVGSELVMPKVEELIGNSVKRLNEPN | soluble
RDTCVTLLLDNSGSMRGRPISIAAICADVLARTLERCQVKVEILGFTTRAWKGGQSREKWLAAGRPQQPGRLNDLRHIVYKGADAPWRRARENLGLMMKEGLLKENIDGEALEWAHRRLSSRAETRKILMVISDGAPVDDSTLSVNPASYLEKHLRDVIAMVERKRQVELIAIGIGHDVTRYYARAVTITDVEQLAGAMTEQLASLFDADPKKRIGKRRVA | not soluble
RERVKKEIKDLEKAKDFTEELIEKVKKYKALAREAALSKIGELASEIFAEFTEGKYSEVVVRAEENKVRLFVVWEGKERPLTFLSGGERIALGLAFRLAMSLYLAGEISLLILDEPTPYLDEERRRKLITIMERYLKKIPQVILVSHDEELKDAADHVIRISLENGSSKVEVVS | soluble
RGKVFLEAQEKYEVNVIYLVSHALVETGNGKSELAKGIKDGKKRYYNFFGIGAFDSSAVRSGKSYAEKEQWTSPDKAIIGGAKFIRNEYFENNQLNLYQMRWNPENPAQHQYASDIRWADKIAKLMDKSYKQFGIKKDDIRQTYYK | not soluble
RKRNRIPLRCTICRKRKVKCDKLRPHCQQCTKTGVAHLCHYMEQTWAEEAEKELLKDNELKKLRERVKSLEKTLSKVHSSP | soluble
RKRRRGYDVDEQGKIVRGKGTVSSNYDNYVFDIWKQYYPQPVEIKHDHVLDHYDIHEELGTGAFGVVHRVTERATGNNFAAKFVMTPHESDKETVRKEIQTMSVLRHPTLVNLHDAFEDDNEMVMIYEFMSGGELFEKVADEHNKMSEDEAVEYMRQVCKGLCHMHENNYVHLDLKPENIMFTTKRSNELKLIDFGLTAHLDPKQSVKVTTGTAEFAAPEVAEGKPVGYYTDMWSVGVLSYILLSGLSPFGGENDDETLRNVKSCDWNMDDSAFSGISEDGKDFIRKLLLADPNTRMTIHQALEHPWLTPGNAPGRDSQIPSSRYTKIRDSIKTKYDAWPEPLPPLGRISNYSSLRKHRPQEYSIRDAFWDRSEAQPRFIVKPYGTEVGEGQSANFYCRVIASSPPVVTWHKDDRELKQSVKYMKRYNGNDYGLTINRVKGDDKGEYTVRAKNSYGTKEEIVFLNVTRHSEPLKFEPLEPMKKAPSPPRVE | soluble
RLSEIFNSPEFAESKSKLTLALGQDITGQPVVTDLGKAPHLLVAGTTGSGKSVGVNAMILSMLFKAAPEDVRMIMIDPKMLELSIYEGIPHLLAPVVTDMKLAANALNWCVNEMEKRYRLMSFMGVRNLAGFNQKIAEAAARGEKIGNPFSLTPDDPEPLEKLPFIVVVVDEFADLMMTAGKKIEELIARLAQKARAAGIHLILATQRPSV | not soluble
RNRFTRRKIVYIHEGMNVPLLGYNAFGLIDRGTNLIQVRGSTGCNLSCIFCSVDEGPYSRTRNLDFVVDVDYLMKWFDWVAKEKGKGLEAHLDAQGEPLLYPYIVELVQELRSHPHVSVISMQSNGVLLDEKLVEELAEAGLDRVNLSIHSLDPEKAKMLMGMKNYDLNHVLEMAEALVNAGIDVLIAPVIIFGINDNEAEAFIEFARRIGAGKRWPALGFQNYVPYKFGRNPVIAKPVPFKEFYEWLRMLEEKTGMRPLVLKPHHFGMHPRPFIPLAFKR | not soluble
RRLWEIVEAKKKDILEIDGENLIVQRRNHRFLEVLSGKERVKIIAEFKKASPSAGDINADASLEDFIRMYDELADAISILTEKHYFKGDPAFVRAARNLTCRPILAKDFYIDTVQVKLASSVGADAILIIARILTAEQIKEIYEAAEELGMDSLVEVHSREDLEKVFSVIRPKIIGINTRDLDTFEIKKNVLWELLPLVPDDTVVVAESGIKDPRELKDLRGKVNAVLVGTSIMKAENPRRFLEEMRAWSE | soluble
